# According to patent US20120052007A1, “PERIPHERAL BLOOD SPARC BINDING ANTIBODIES AND USES THEREOF” (ABRAXIS BIOSCIENCE, LLC, priority 2010, published 2012):
# “Also recorded” adds a separate entry of the source.
# T1: recombinant human SPARC (Bio1-SPARC) (Homo sapiens, UniProt P09486)
# T1 sequence (P09486 18-303): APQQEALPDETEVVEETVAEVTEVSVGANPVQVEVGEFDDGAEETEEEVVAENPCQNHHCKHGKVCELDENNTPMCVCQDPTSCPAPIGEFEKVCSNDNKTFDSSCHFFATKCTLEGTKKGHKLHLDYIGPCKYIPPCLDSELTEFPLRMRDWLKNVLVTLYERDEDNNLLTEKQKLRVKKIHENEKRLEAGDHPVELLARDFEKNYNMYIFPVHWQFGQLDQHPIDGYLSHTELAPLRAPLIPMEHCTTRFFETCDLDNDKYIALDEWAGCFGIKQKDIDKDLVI
# T2: mouse SPARC (Mus musculus, UniProt P07214)
# T2 sequence (P07214 18-302): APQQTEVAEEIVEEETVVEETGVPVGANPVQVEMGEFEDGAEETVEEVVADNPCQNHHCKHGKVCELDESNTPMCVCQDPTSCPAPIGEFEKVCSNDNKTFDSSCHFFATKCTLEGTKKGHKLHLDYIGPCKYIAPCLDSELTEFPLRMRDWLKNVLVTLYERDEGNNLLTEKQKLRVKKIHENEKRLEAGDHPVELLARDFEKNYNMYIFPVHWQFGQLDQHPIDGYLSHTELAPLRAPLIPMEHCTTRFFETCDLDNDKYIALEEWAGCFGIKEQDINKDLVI
# T3: SPARC (Homo sapiens, UniProt P09486)
# T3 sequence (P09486 18-303): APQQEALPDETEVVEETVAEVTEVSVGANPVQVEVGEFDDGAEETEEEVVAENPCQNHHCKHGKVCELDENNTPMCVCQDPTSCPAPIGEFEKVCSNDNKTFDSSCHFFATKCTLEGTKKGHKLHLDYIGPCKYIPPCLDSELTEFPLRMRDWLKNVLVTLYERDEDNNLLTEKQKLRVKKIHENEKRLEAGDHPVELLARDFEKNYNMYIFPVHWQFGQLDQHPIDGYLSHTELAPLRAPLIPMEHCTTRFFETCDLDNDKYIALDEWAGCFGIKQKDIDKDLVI
# T4: denatured human SPARC (Homo sapiens, UniProt P09486)
# T4 sequence (P09486 18-303): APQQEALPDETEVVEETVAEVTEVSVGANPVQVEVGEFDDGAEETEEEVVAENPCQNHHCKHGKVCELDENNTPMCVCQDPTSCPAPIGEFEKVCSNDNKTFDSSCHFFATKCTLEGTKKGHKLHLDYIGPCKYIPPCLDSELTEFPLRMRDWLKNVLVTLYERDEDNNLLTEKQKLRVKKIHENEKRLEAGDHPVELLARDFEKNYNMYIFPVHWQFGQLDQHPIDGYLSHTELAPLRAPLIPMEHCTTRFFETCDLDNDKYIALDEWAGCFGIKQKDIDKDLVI
# Key:
# [1] = system: HT29 (colon); conditions: for Tumor growth inhibition (TGI): HT29 xenograft, versus control group at euthanasia of control animals
# Description: Female and male athymic NCr-nu mice between 5 and 6 weeks of age weighing approximately 20 g were purchased from Harlan, Inc. (Madison, Wis., USA). Human cancer cells HT29 (colon), PC3 (prostate), and MDA-MB-231 (breast) were propagated in cell culture and implanted subcutaneously at one million cells per flank of female (for MDA-MB-231 and HT29) or male (for PC3 prostate tumor) nude mice and allowed to grow to approximately 60-100 mm^3 before treatment was initiated. Treatments included 5-fluorouracil (5FU), docetaxel (Taxotere®), albumin-bound paclitaxel (nab-paclitaxel), nab-paclitaxel plus suntinib malate (Sutent®), or nab-paclitaxel plus bevacizumab (Avastin®) with or without exogenously administered SPARC). Control animals for each xenograft were administered PBS. The longest (length) and shortest (width) tumor diameters (millimeter) and tumor depth were measured twice weekly. The tumor volume was calculated with the formula: tumor volume (mm3)=width×length×depth. Tumor growth inhibition (TGI) was defined as the percentage of tumor volume reduction compared with the control group at the time of euthanasia for the control animals. Tumor doubling time was defined as the time required for the tumor volume to double […]. Animal weights were measured twice weekly. Statistical analysis was performed using the Prism program (GraphPad, San Diego, Calif., USA). Analysis of variance (ANOVA) statistic was used to compare tumor growth curves.
# [2] = target: T1, recombinant human SPARC (Bio1-SPARC); assay: ELISA binding to recombinant human SPARC (Bio1-SPARC); conditions: for binding to Bio1-SPARC compared with HTI-SPARC (ELISA): Bio1-SPARC versus human platelet SPARC (FIG. 9)
# Method: The ability of Imm1 through Imm12 (the mouse-derived anti-human SPARC antibodies) to bind recombinant human SPARC (Bio 1-SPARC) was characterized by multiple ELISA assays performed at various stages of purification. FIG. 7 presents the results of an ELISA assay performed on a serial dilution (1:1, 1:10, and 1:100) of antibody supernatants prior to purification. […] Another ELISA assay was performed with the purified antibodies (FIG. 8) at concentrations of 0.04 μg/mL, 0.2 μg/mL, 1 μg/mL, and 5 μg/mL. […] An additional ELISA was performed to compare the binding of the mouse derived Immseries antibodies to two different varieties of SPARC: Bio1-SPARC, and human platelet SPARC (HTI-SPARC) (FIG. 9).
# ELISA assays were also used to characterize the SPARC binding of the fully human SPARC binding antibodies, Imm13 and Imm14. […] Surface plasmon resonance binding assays, performed on the Biacore 3000® (GE/Biacore International AB, Uppsala, Sweden), tested the binding of Fab 16 to both varieties of SPARC immobilized on a sensorchip (FIGS. 11 and 12).
# [3] = system: recombinant human SPARC protein; assay: Tube Formation Assay (AngioKit) with SPARC and SPARC binding antibodies; assay type: cell-based; conditions: 300 μg/mL antibody with 10 μg/mL recombinant human SPARC
# Method: This assay was performed using the TCS Cellworks human AngioKit model kit (TCS-ZHA-1000, TCS Cell Works, Buckingham, UK) as described in Example 10 above. The media contained 10 μg/mL recombinant human SPARC protein. The media also contained 300 μg/mL of one of the above prepared mouse SPARC binding monoclonal antibodies (Imm12, Imm14, mHTI), or a control (mouse IgG).
# To examine the effect of SPARC on tubule formation, and interference with that function by SPARC binding monoclonal antibodies, the number of tubules formed and their length was evaluated by light microscopy.
# [4] = target: T2, mouse SPARC; assay: ELISA binding to murine SPARC (FIG. 16); conditions: ELISA (FIG. 16)
# [5] = target: T3, SPARC; assay: ELISA binding to human SPARC (FIG. 16); conditions: ELISA (FIG. 16)
# [6] = target: T4, denatured human SPARC; assay: Western blot against denatured SPARC; assay type: binding; conditions: SDS polyacrylamide gel
# Description: Western blotting was used to determine whether the Imm series antibodies bind to linear or conformational epitopes. In this analysis, SPARC protein was run on a polyacrylamide gel in the presence of SDS. Accordingly, the SPARC protein on the gel was in its denatured form. The Imm series antibodies were used as primary antibodies and were then probed with goat anti-mouse IgG. BSA was used as a negative control.
# [7] = system: HT29 colon xenografts; assay: Tumor localization of Alexa 680 labeled antibodies in HT29 xenografts; assay type: in vivo, mice; conditions: 200 ug/mouse i.v. day 1, Alexa 680 label, followed 36 days
# Method: Nude mice implanted with subcutaneous HT29 colon xenografts were treated with Imm series antibodies labeled with labeled with Alexa 680 fluorescent dye at dose of 200 ug/mouse. The labeled Imm antibodies were formulated in saline and administered intravenously on day 1. The fluorescent signal was followed in these mice over the course of 36 days.
# [8] = system: LL/2 (Lewis Lung Carcinoma); assay: LL/2 Lewis Lung Carcinoma survival / lung metastasis model; assay type: in vivo, mice; conditions: 200 μg/mouse i.p. twice weekly for 4 weeks, versus mouse control IgG
# Method: C57BL male mice (approx. 6 weeks old) were weighed, and then injected intravenously with approximately 1×10^6 cells (approximately 0.1 mL) of LL/2 (Lewis Lung Carcinoma) with 25-gauge needle. A minimum of 10 animals was used per group. Twice weekly for 4 weeks, each animal in all groups received 200 μg/mouse of a test antibody or mouse IgG. These test articles/antibodies were dosed via intra-abdominal injection into the peritoneal cavity with a 25-27 gauge needle. The first dose was administered within 30 minutes of tumor cell injection.
# Animals were weighed prior to tumor cell injection, and twice weekly prior to dosing. All animals were examined twice daily for mortality/morbidity. At the end of the experiment, the mice were killed, and primary tumors and lungs were removed, fixed, and embedded. Euthanized animals and any animals found dead prior to rigor mortis were necropsied. Plasma and lungs from all animals were collected and weighed at termination. Lungs were infused with and then immersed in 10% Neutral buffered formalin. Tissues were stored for additional gross and histopathologic analysis.
# Animals were administered either mHTI, Imm12, or Imm14. A negative control group was administered mIgG. The antibodies were formulated in PBS and were administered in at dose of 200 μg/mouse, twice weekly, for four weeks. The survival of the animals was then recorded over […].
# [9] = target: T3, SPARC; assay: ELISA comparing Imm11, Imm12, Imm13, Imm14 binding to human SPARC; conditions: ELISA (FIG. 13)
# Method: An ELISA assay was also performed to directly compare the SPARC binding capabilities of selected mouse-derived anti human SPARC antibodies, Imm11 and Imm12, to the fully human Imm13 and Imm14, the results of which are presented in FIG. 13.
# [10] = antibody supernatants prior to purification, dilutions 1:1, 1:10, 1:100 (FIG. 7)
# [11] = purified antibodies at 0.04, 0.2, 1 and 5 μg/mL (FIG. 8)
molecule,measurement,setting,value
"O=c1[nH]cc(F)c(=O)[nH]1 [Imm 5-FU, 5-fluorouracil]",Tumor growth inhibition (TGI),[1],89.8%
same,body weight / tolerability,"[1]; mouse, in vivo",without decrease in body weight
"bevacizumab: anti-VEGF antibody, Avastin",Tumor growth inhibition (TGI),[1],75%
"Imm4: mouse-derived anti-human SPARC antibody from hybridoma, IgG1 (κ) (antibody, V domains shown) VH: AASGFAFSSYDMSWVRQTPEKRLEWVAYITSGGGSTYYPDTVKGRFTISRDNAKNTLYLQMSSLKSEDTAMYYCAGSRSWFAYWGQGTTVTV VL: GEGVSFSCRASQSIGTGIHWYQRRTNGSPRLLIKYASESISGIPSRFSGSGSGTDFTLTINSVESEDIADYYCQQSYSWPLTFGAGTKLELK",binding to Bio1-SPARC compared with HTI-SPARC (ELISA),[2],bind Bio1-SPARC significantly better than HTI-SPARC
same,Bio1-SPARC binding (ELISA),[2]; [10],highest Bio1-SPARC binding
same,Bio1-SPARC binding (ELISA),[2]; [11],highest Bio1-SPARC binding
"Imm6: mouse-derived anti-human SPARC antibody from hybridoma, IgG1 (κ) (antibody, V domains shown) VH: TVTGYSITSDSAWNWIRQFPGNKLEWMGHISYSGSTSYNPSLKSRISITRDTSKDQFFLQLNSVTTEDTATYYCARGSYYGNFGFTYWGQGT VL: GETVTITCQASENIASDLAWYQKEGRSPQLLVYEARNLADGVPSRFSGSGSDTLYSLNIHSLQSEDVARYYCQHYYGTPWTFGGGTKPRAN",Bio1-SPARC binding (ELISA),[2]; [10],highest Bio1-SPARC binding
"Imm12: mouse-derived anti-human SPARC antibody from hybridoma, IgG1 (κ), SEQ ID NOs 7 and 14 (antibody, V domains shown) VH: KASGYTFTKYGMNWVKQAPGKGLQWMGWINTNTGEPTYAEEFKGRFAFSLETSASTAYLQINNLENADSATYFCTRGSSYFDYWGQGTTVTV VL: GQRATISYRASKSVSTSGYSYMHWNQQKPGQPPRLLIYLVSNLESGVPARFSGSGSGTDFTLNIHPVEEEDAATYYCQHIRELTRSVEAPSS",effect on SPARC-induced tubule formation,[3],only very slight formation of very short tubules
same,binding to mouse SPARC,[4],not mouse SPARC
same,binding to human SPARC,[5],specifically bind to human SPARC
same,binding to denatured SPARC,[6],binding
same,localization at the tumor site,[7],do not localize at the tumor site
same,inhibition of lung LL/2 metastasis,[8],did not inhibit lung LL/2 metastasis
same,binding to Bio1-SPARC compared with HTI-SPARC (ELISA),[2],bind both varieties of human SPARC equally well
same,Bio1-SPARC binding (ELISA),[2]; [10],highest Bio1-SPARC binding; also recorded: highest binding overall
same,Bio1-SPARC binding (ELISA),[2]; [11],highest Bio1-SPARC binding
"Imm13: fully human anti-human SPARC antibody created from Fab6, IgG1 (κ) (antibody, V domains shown) VH: QVQLVQSGGGLVQPGGSLRLSCAASGFTVSSNYMSWVRQAPGKGLEWVSVIYSGGSTYYADSVKGRFTISRDNSKNTLYLQMNSLRAEDTAVYYCARGIAAAGLDYWGQGTLVTVSP VL: ELVLTQPPSVSAAPGQKVTISCSGSSSNIGNNYVYWYQQLPGTAPKLLIYRNNQRPSGVPDRFSGSKSGTSASLAISGLRSEDEADYYCAAWDDSLSGWVFGGGTKLTVL",affinity for SPARC relative to mouse derived Imm11 and Imm12,[9],higher affinity
"Imm2: mouse-derived anti-human SPARC antibody from hybridoma, IgG1, 2b (κ) (antibody, V domains shown) VH: TVTGYSITSDHAWSWIRQFPGNKLEWMGYISYSGSTSYNPSLKSRVSVTRDTSKNHFFLQLNSVTTEDTATYYCARAAFIGGWFAYWGQGTT VL: GEKVTITCSASSSVSYMHWFQQKPGTSPKLWIYSTPNLASGVPARFSGSGSGTSYSLTISRMEAEDAATYYCQQRSSYPLTFGGGTKLELKQ",localization at the tumor site,[7],localizes well
"Imm10: mouse-derived anti-human SPARC antibody from hybridoma, IgG1 (κ) (antibody, V domains shown) VH: AASGFTFSYYGMSWVRQTPDKRLEWVATISSGGSYTYYPDSVKGRFTISRDNSENTLYLQMNSLKSEDTAMYFCARRGSSGDYYGMDYWGQG VL: GEKVTMSCKSSQSLLYSNSQKNYLAWYQQKPGQSPKLLIYWASTRESGVPPRFTGSGSGTDFSLTISSVKAEDLAVYYCQQYYSFPRTFGGG",Bio1-SPARC binding (ELISA),[2]; [10],highest Bio1-SPARC binding
